The values that follow come from article PMC8191293.

Data set [1] can be described thus: flow cytometry, total cellular PMP22, HEK293. The conditions noted are these: glycan lost; control: same variant with N41 intact.
The nature of data set [2]: flow cytometry, cell surface PMP22, rat Schwann cells. The conditions noted are these: glycan lost; control: same variant with N41 intact.
Data set [3] can be described thus: flow cytometry, total PMP22, primary rat Schwann cells. The conditions noted are these: glycan lost; control: same variant with N41 intact.
Data set [4] can be described thus: single-cell flow cytometry, surface/total PMP22, HEK293. The conditions noted are these: glycan lost.
Data set [5] in a line: flow cytometry, trafficking efficiency, rat Schwann cells. The conditions noted are these: glycan lost; control: same variant with N41 intact.
Data set [6] can be described thus: flow cytometry, total cellular PMP22. The conditions noted are these: glycan changed form; control: WT PMP22 in parental HEK293.
A short description of data set [7]: flow cytometry, trafficking efficiency. The conditions noted are these: glycan changed form; control: WT PMP22 in parental HEK293.
Data set [8] can be described thus: flow cytometry, cell surface PMP22, HEK293. The conditions noted are these: glycan lost; control: same CMTD variant with N41 intact.
Data set [9] can be described thus: flow cytometry, normalized trafficking efficiency of WT PMP22. The conditions noted are these: glycan lost; control: WT PMP22 in untreated or DMSO-treated HEK293.
A short description of data set [10]: flow cytometry, trafficking efficiency of CMTD PMP22 variants. The conditions noted are these: glycan lost; control: same CMTD variant in untreated HEK293.

B1: peripheral myelin protein 22 (PMP22): L16P/N41Q (protein)
parent chain: MLLLLLSIIVLHVAVPVLLFVSTIVSQWIVGNGHATDLWQNCSTSSSGNVHHCFSSSPNEWLQSVQATMILSIIFSILSLFLFFCQLFTLTKGGRFYITGIFQILAGLCVMSAAAIYTVRHPEWHLNSDYSYGFAYILAWVAFPLALLSGVIYVILRKRE
As for B1, the expression_or_secretion entry in data set [1] and in data set [3] was “no change” each time. In addition, the localisation_or_trafficking result in [2] and in data set [5] was “increases” throughout. The “localisation_or_trafficking, other: trafficking efficiency” value in data set [4] (control: L16P PMP22) is “increases, 34 ± 10 vs 3 ± 1”.

B2: peripheral myelin protein 22 (PMP22): UGGT1 KO (protein)
parent chain: MLLLLLSIIVLHVAVLVLLFVSTIVSQWIVGNGHATDLWQNCSTSSSGNVHHCFSSSPNEWLQSVQATMILSIIFSILSLFLFFCQLFTLTKGGRFYITGIFQILAGLCVMSAAAIYTVRHPEWHLNSDYSYGFAYILAWVAFPLALLSGVIYVILRKRE
Turning to B2, the expression_or_secretion entry in [6] is on record as “decreases”. Further, in data set [7], the localisation_or_trafficking entry is on record as “decreases”.

B3: peripheral myelin protein 22 (PMP22): G93R/N41Q (protein)
parent chain: MLLLLLSIIVLHVAVLVLLFVSTIVSQWIVGNGHATDLWQNCSTSSSGNVHHCFSSSPNEWLQSVQATMILSIIFSILSLFLFFCQLFTLTKRGRFYITGIFQILAGLCVMSAAAIYTVRHPEWHLNSDYSYGFAYILAWVAFPLALLSGVIYVILRKRE
Regarding B3, in data set [8], the localisation_or_trafficking result was “increases”. Further, the expression_or_secretion result in data set [1] is “increases”.

B4: peripheral myelin protein 22 (PMP22): T118M/N41Q (protein)
parent chain: MLLLLLSIIVLHVAVLVLLFVSTIVSQWIVGNGHATDLWQNCSTSSSGNVHHCFSSSPNEWLQSVQATMILSIIFSILSLFLFFCQLFTLTKGGRFYITGIFQILAGLCVMSAAAIYMVRHPEWHLNSDYSYGFAYILAWVAFPLALLSGVIYVILRKRE
B4: in data set [8], the localisation_or_trafficking entry is given as “increases”. Also, the expression_or_secretion entry in data set [1] is “increases”.

B5: peripheral myelin protein 22 (PMP22): STT3A KO (protein)
parent chain: MLLLLLSIIVLHVAVLVLLFVSTIVSQWIVGNGHATDLWQNCSTSSSGNVHHCFSSSPNEWLQSVQATMILSIIFSILSLFLFFCQLFTLTKGGRFYITGIFQILAGLCVMSAAAIYTVRHPEWHLNSDYSYGFAYILAWVAFPLALLSGVIYVILRKRE
For B5, in [9], the “localisation_or_trafficking, fold_change” value is reported as “no change”. The localisation_or_trafficking result in [10] is recorded as “no change”.

B6: peripheral myelin protein 22 (PMP22): A67T/N41Q (protein)
parent chain: MLLLLLSIIVLHVAVLVLLFVSTIVSQWIVGNGHATDLWQNCSTSSSGNVHHCFSSSPNEWLQSVQTTMILSIIFSILSLFLFFCQLFTLTKGGRFYITGIFQILAGLCVMSAAAIYTVRHPEWHLNSDYSYGFAYILAWVAFPLALLSGVIYVILRKRE
For B6, in [8], the localisation_or_trafficking entry is “increases”. In addition, the expression_or_secretion entry in [1] is on record as “increases”.

B7: peripheral myelin protein 22 (PMP22): C19 (protein)
parent chain: MLLLLLSIIVLHVAVLVLLFVSTIVSQWIVGNGHATDLWQNCSTSSSGNVHHCFSSSPNEWLQSVQATMILSIIFSILSLFLFFCQLFTLTKGGRFYITGIFQILAGLCVMSAAAIYTVRHPEWHLNSDYSYGFAYILAWVAFPLALLSGVIYVILRKRE
Turning to B7, the “localisation_or_trafficking, fold_change” value in data set [9] was “increases”.

B8: peripheral myelin protein 22 (PMP22): NGI-1 (protein)
parent chain: MLLLLLSIIVLHVAVLVLLFVSTIVSQWIVGNGHATDLWQNCSTSSSGNVHHCFSSSPNEWLQSVQATMILSIIFSILSLFLFFCQLFTLTKGGRFYITGIFQILAGLCVMSAAAIYTVRHPEWHLNSDYSYGFAYILAWVAFPLALLSGVIYVILRKRE
For the protein B8, the “localisation_or_trafficking, fold_change” value in data set [9] is given as “increases”. In addition, the localisation_or_trafficking entry in [10] was “increases”.

B9: peripheral myelin protein 22 (PMP22): N41Q (protein)
parent chain: MLLLLLSIIVLHVAVLVLLFVSTIVSQWIVGNGHATDLWQNCSTSSSGNVHHCFSSSPNEWLQSVQATMILSIIFSILSLFLFFCQLFTLTKGGRFYITGIFQILAGLCVMSAAAIYTVRHPEWHLNSDYSYGFAYILAWVAFPLALLSGVIYVILRKRE
As to B9, the “localisation_or_trafficking, other: trafficking efficiency” value in data set [4] (control: wild type) is recorded as “increases, 53 ± 7 vs 19 ± 5”.

B10: peripheral myelin protein 22 (PMP22): STT3B KO (protein)
parent chain: MLLLLLSIIVLHVAVLVLLFVSTIVSQWIVGNGHATDLWQNCSTSSSGNVHHCFSSSPNEWLQSVQATMILSIIFSILSLFLFFCQLFTLTKGGRFYITGIFQILAGLCVMSAAAIYTVRHPEWHLNSDYSYGFAYILAWVAFPLALLSGVIYVILRKRE
For B10, the “localisation_or_trafficking, fold_change” value in data set [9] is on record as “increases”. Moreover, in [10], the localisation_or_trafficking entry is “no change”.
